Test [1] addresses murine CTLA4 (murine) (UniProt P09793). In words: ELISA on coated CTLA4, source Mouse (row of 8D2). (In general: ELISA stands for enzyme-linked immunosorbent assay.)
For test [2] the target is unchanged. In words: ELISA, coat murine CTLA4 0.5 ug/ml; antibody 1 ug/ml.
Test [3] has the same target. In words: ELISA on coated CTLA4, source Mouse (row of 8D2(Re)).
The target is the same in test [4]. In words: ELISA on coated CTLA4, source Mouse (row of 8D2H1L1).
Test [5] has as its target monkey CTLA4-hFc (monkey). Kind of test: ELISA on coated CTLA4, source Monkey (row of 8D2H2L2).
Test [6] concerns the target monkey CTLA4-hFc (monkey). Kind of test: ELISA on coated CTLA4, source Monkey (row of 8D2H3L3).
For test [7], the target named is murine CTLA4 (murine) (UniProt P09793). Kind of test: ELISA, coat murine CTLA4 0.5 ug/ml; antibody 0.1 ug/ml.
Test [8] shares this target. In words: ELISA, coat murine CTLA4 0.5 ug/ml; antibody 0.3 ug/ml.
Test [9] has the same target. In words: ELISA, coat murine CTLA4 0.5 ug/ml; antibody 0.01 ug/ml.
For test [10] the target is unchanged. Kind of test: ELISA, coat murine CTLA4 0.5 ug/ml; antibody 0.03 ug/ml.
Test [11] has the same target. In words: ELISA, coat murine CTLA4 0.5 ug/ml; antibody 0.001 ug/ml.
Test [12] shares this target. In words: ELISA, coat murine CTLA4 0.5 ug/ml; antibody 0.003 ug/ml.
Test [13] concerns the target monkey CTLA4-hFc (monkey). In words: ELISA, coat monkey CTLA4-hFc 0.25 ug/ml; antibody 1 ug/ml.
The target of test [14] is monkey CTLA4-hFc (monkey). Kind of test: ELISA, coat monkey CTLA4-hFc 0.25 ug/ml; antibody 0 (blank).
Test [15] addresses murine CTLA4 (murine) (UniProt P09793). Kind of test: ELISA, coat murine CTLA4 0.5 ug/ml; antibody 0 ug/ml (blank).
The target in test [16] is monkey CTLA4-hFc (monkey). Kind of test: ELISA, coat monkey CTLA4-hFc 0.25 ug/ml; antibody 1:3 (start 1 ug/ml).
Test [17] deals with monkey CTLA4-hFc (monkey). In words: ELISA, coat monkey CTLA4-hFc 0.25 ug/ml; antibody 1:9 (start 1 ug/ml).
Test [18] deals with monkey CTLA4-hFc (monkey). Kind of test: ELISA, coat monkey CTLA4-hFc 0.25 ug/ml; antibody 1:27 (start 1 ug/ml).
Test [19] deals with monkey CTLA4-hFc (monkey). Kind of test: ELISA, coat monkey CTLA4-hFc 0.25 ug/ml; antibody 1:81 (start 1 ug/ml).
Test [20] concerns the target monkey CTLA4-hFc (monkey). In words: ELISA, coat monkey CTLA4-hFc 0.25 ug/ml; antibody 1:243 (start 1 ug/ml).
Test [21] concerns the target monkey CTLA4-hFc (monkey). In words: ELISA, coat monkey CTLA4-hFc 0.25 ug/ml; antibody 1:729 (start 1 ug/ml).
In test [22] the target is CTLA4 antigen on the surface of 293F-CTLA4 host cells (UniProt P16410). Kind of test: flow cytometry, mean fluorescence intensity with the isotype control (unlabeled 293F bar: 3.62).
CTLA4 antigen on the surface of 293F-CTLA4 host cells, sequence (P16410 36-223 limits assumed): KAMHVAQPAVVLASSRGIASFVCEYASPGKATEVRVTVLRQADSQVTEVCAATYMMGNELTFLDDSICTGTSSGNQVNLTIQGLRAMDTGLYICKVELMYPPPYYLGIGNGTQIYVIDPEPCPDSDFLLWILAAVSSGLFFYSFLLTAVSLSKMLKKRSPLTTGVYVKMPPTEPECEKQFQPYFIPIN

Several values for one entry are separate records, joined by “and”; a condition that tells them apart may be missing. Equal values may be shown once.

In general, EC50 refers to the concentration needed to bring the measured effect to its halfway point.

For control antibody 10D1, the 50% effective concentration (EC50) was found to be 0.062 nM in the test with murine CTLA4 (murine) [1]; 0.062 nM with murine CTLA4 (murine) [3]; 0.062 nM with murine CTLA4 (murine) [4]; 0.258 nM in [5]; 0.258 nM in test [6]. For the same substance, the absorbance at 450 nm with murine CTLA4 (murine) [2] is 3 and 2.98; with murine CTLA4 (murine) [7], 2.43 and 2.54; with murine CTLA4 (murine) [8] it was 2.85 and 2.9; with murine CTLA4 (murine) [9] it was 0.673 and 0.794; in the test with murine CTLA4 (murine) [10] it was 1.51; with murine CTLA4 (murine) [11], 0.136 and 0.142. The absorbance at 450 nm was 0.292 and 0.328 with murine CTLA4 (murine) [12]; 1.79 and 1.85 in [13]; 0.049 in test [14]; 0.046 and 0.05 with murine CTLA4 (murine) [15]; 1.34 in test [16]; 0.845 and 0.868 in [17]. In addition, the absorbance at 450 nm was 0.429 and 0.402 in test [18]; 0.19 and 0.191 in [19]; 0.104 and 0.108 in [20]; 0.063 and 0.067 in [21].

Substance isotype control (antibody) returned an MFI in test [22] of 4.95.

The record behind these values is patent US20260166139A1.
